Results: article PMC12256043, “Integrated platform for structural and functional analysis of terpene synthases of Cannabis sativa” (PeerJ, 2025)
Blank lines part the entries; values can stand above or below the molecule they belong to.

Assays:
Test in all cases: malachite green assay coupled to inorganic pyrophosphatase
Details in all cases: pH 7.5, 5 mM MgCl2, 37 °C, 30 min
CsTPS12PK = molecular target: T1, CsTPS12PK (Cannabis sativa, UniProt A0A1V0QSF4); format: biochemical
T1 construct: gene TPS33PK; printed as CsTPS12PK/CsTPS33PK; E. coli; monomer
Description: malachite green assay coupled to inorganic pyrophosphatase on CsTPS12PK

CsTPS13PK = molecular target: T2, CsTPS13PK (Cannabis sativa, UniProt A0A1V0QSG1); format: biochemical
T2 construct: gene TPS13PK; E. coli BL21(DE3); monomer
Description: malachite green assay coupled to inorganic pyrophosphatase on CsTPS13PK

[1] = substrate: CC(C)=CCC/C(C)=C/CC/C(C)=C/CO[P@@](=O)(O)OP(=O)(O)O; format: biochemical, Cannabis sativa
Description: malachite green assay coupled to inorganic pyrophosphatase on CsTPS20CT

[2] = substrate: CC(C)=CCC/C(C)=C/COP(=O)(O)OP(=O)(O)O; format: biochemical, Cannabis sativa
Description: malachite green assay coupled to inorganic pyrophosphatase on CsTPS3FN

[3] = substrate: CC(C)=CCC/C(C)=C/COP(=O)(O)OP(=O)(O)O; format: biochemical, Cannabis sativa; remark: listed apart in the source
[4] = substrate: CC(C)=CCC/C(C)=C/CC/C(C)=C/CO[P@@](=O)(O)OP(=O)(O)O; format: biochemical, Cannabis sativa; remark: listed apart in the source
Description: malachite green assay coupled to inorganic pyrophosphatase on CsTPS16CC

[5] = substrate: CC(C)=CCC/C(C)=C/COP(=O)(O)OP(=O)(O)O; format: biochemical, Cannabis sativa; remark: listed apart in the source
Description: malachite green assay coupled to inorganic pyrophosphatase on CsTPS1SK

T1 sequence (A0A1V0QSF4 34-615): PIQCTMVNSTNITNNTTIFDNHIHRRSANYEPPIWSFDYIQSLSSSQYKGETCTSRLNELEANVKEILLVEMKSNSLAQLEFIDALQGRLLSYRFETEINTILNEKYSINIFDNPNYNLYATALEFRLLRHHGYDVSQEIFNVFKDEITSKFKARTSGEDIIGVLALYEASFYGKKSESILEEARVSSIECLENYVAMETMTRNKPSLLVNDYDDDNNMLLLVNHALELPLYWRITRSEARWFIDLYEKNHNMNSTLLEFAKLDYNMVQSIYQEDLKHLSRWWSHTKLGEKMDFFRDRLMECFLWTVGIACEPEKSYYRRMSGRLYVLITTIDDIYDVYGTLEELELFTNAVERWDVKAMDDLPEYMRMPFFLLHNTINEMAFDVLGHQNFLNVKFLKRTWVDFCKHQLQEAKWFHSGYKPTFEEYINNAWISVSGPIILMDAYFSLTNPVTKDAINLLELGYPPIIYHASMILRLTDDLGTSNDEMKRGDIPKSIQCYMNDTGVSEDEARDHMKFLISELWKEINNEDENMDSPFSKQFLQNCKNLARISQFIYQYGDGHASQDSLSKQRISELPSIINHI
T2 sequence (A0A1V0QSG1 41-640): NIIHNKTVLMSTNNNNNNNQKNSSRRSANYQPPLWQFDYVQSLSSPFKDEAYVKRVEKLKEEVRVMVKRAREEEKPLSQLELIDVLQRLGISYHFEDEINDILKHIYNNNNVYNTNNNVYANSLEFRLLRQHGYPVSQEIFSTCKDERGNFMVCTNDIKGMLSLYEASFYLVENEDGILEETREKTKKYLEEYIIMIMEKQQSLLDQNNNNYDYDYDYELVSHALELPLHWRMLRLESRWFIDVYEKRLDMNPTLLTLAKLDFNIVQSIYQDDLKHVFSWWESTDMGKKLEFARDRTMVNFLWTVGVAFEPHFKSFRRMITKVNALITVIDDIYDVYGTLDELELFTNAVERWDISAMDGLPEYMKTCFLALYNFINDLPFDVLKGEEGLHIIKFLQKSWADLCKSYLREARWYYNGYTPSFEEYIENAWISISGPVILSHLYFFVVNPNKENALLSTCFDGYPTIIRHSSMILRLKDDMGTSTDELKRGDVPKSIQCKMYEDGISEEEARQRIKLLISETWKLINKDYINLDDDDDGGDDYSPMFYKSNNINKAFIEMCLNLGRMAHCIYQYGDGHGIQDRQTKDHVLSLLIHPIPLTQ

- Km (CsTPS12PK): 41.8 ± 8.29 µM
- Km (CsTPS13PK): 13 ± 1.23 µM
Molecule: CC(C)=CCC/C(C)=C/COP(=O)(O)OP(=O)(O)O [GPP, geranyl diphosphate]

B1: CsTPS20CT (Cannabis sativa) (protein)
chain: MSNIQVLASSQLSDKIIARPTTKFHPSIWGDRFLHYNISEQDLVCKQEKVEELIQVVKKEILSSNHDQLKLIDNLQRLGLSYHFESEIEKLLEQLSITHHQNHHDLHDASLWFRLLRQHGFNVSSSIFEKFKDEEGNFKESLITDVPGLLSLYEASHLSYVGESILDEALAFTTTHLKAIVANSKDHPLSHQISIVLHRPLRKTIERLHARFYISIYEKDASHNKLLLELAKLDFNLLQCFHKKELSEITRWWKEHEFAKKFPFARDRMVELYFWILGVYYEPKYSRARKLLTKVIALTSITDDIYDAYGTIDELQLLTKAIQRWDINCMDKLKQEYLKTYYKVMLDSYEEFEKELKKEELYKLEYAKEEMKRIIGGYFEEARWLNEGYFPSFDEHLRVSYVSSGNVLLIATSFVGMHDVVTHETLDWLSKDPKIVSASTLLSRFMDDIGSRKFEQKRNHIPSTVDCYMKQYGVSEEEAIKELNKRVDTHWKEINEDFIRPAVVPFPILVRVLNFTKIVDLLYKEGDDQYTNVGKVLKESIAALLIDSIPL
notes: E. coli BL21(DE3); monomer
- Km [1]: 16.86 ± 6.42 µM

B2: CsTPS3FN (Cannabis sativa) (protein)
chain: RSANYEPPIWSFDYIQSLSTQYKGESYTRQLNKLKKEVKRMLLRMEINSLALLELIDTLQRLGISYHFKNEINTILKKKYNDNYINNNIITNPNYNNLYATALEFRLLRQHGYTVPQEIFNAFKDKRGKFKTSLSDDIMGVLCLYEASFYAMKHENILEEARIFSTKCLKKYMEKIENEEEKKILLLNDNNINSNLLLINHAFELPLHWRITRSEARWFIDEIYEKKQDMNSTLFEFAKLDFNIVQSTHQEDLQHLSRWWRDCKLGGKLNFARDRLMEAFLWDVGLKFEGEFSYFRRTNARLFVLITIIDDIYDVYGTLEELELFTSAVERWDVKLINELPDYMKMPFFVLHNTINEMGFDVLVEQNFVNIEYLKKSWVDLCKCYLQEAKWYYSGYQPTLEEYTELGWLSIGASVILMHAYFCFTNPITKQDLKSLQLQHHYPNIIKQACLITRLADDLGTSSDELNRGDVPKSIQCYMYDNNATEDEAREHIKFLISETWKDMNKKDEDESCLSENFVEVCKNMARTALFIYENGDGHGSQNSLSKERISTLIITPINIPK
notes: E. coli BL21(DE3); monomer
- Km [2]: 4.569 ± 0.411 µM

B3: CsTPS5FN (Cannabis sativa) (protein)
chain: MSLSGLISTTTFKEQPAIVRRSGNYKPPLWDAHFIQSLQVIYTEESYGKRINELKEDVRRILEKEAENPLVKLEQINDLSRLGISYHFEDQIKAILNLTYNNNNALWKKDNLYATALHFKLLRQYGFNPVSSEIFNAFKDEKKEFKESLSKDVKGMVCLYEASFYSFRGEPILDEARDFTTKHLKQYLMMTRQGQNVDHDDDNDLMVKLVEHALELPVHWRMKRLEARWFIDMYAEMSHHHHMNSTFLQLAKLDFNVVQSTYQEDLKHVVRWWKTTSLGERLPFARDRIVEIFLWSVGLKFEPQFRYCRKMLTKIGQLVTTMDDIFDVYGTLDELSLFQHALGRWDINTIDQLPDYMKIFFLATYNVVNEMAYDVLKQNGILIIKYLKKTWTDLCKCYMLEANWYHSGYTPSLEEYIKNGWISIAEPLILVNLYCLITNPIKEDDIDCLLQYPTFIRISGIIARLVDDLGTSSDELKRGDNPKSIQCYMKENGICDEKNGREHIRNLISETWKEMNEARVGESPFSQAFIETAIDFVRTAMMIYQKEQDGVGTNIDHYTKDGIISLFFTSIPI
notes: E. coli BL21(DE3); monomer
- Km [3]: 23.3 ± 1.34 µM

B4: CsTPS16CC (Cannabis sativa) (protein)
chain: MSSQVLASSQKNDKTQNIIRPTTKFHPPIWGDRFLHYNISEQELEYKEGQVEELKEVVRKEIFHGNNKRNIINVSKQLKLIDDVERLGLSYHFESEIEKKLQHIYEITTNNIDHQDQHYYYSNHDEDLHDVSIRFRLLRQHGFNISSNIFEKFKDESGKFKESLKSDIEGMLSLYEASYLSYVEENILDEALAFTTTNLKLVANKKEHPLSHEISLALYRPLRKTLVRLYARHYISIYEKQPSHNKVLLQFAKLDFNLLQSLHKKELSEISRWWKELDLANKLPFARNRIVELYLWILGVFHEPQFSLARKILIKAISMASVADDIYDAYGTFEELELLTEAILRWDISFIDKLSPDYLKTYYKVFLNSYEECEKDLKKEERYKLHYAKESMKKLIQAYFHEAQWLNQGHFPSFDEHLKVSFVSSGYPMLIETSFVGMQDVKTNQVFEWLSTQPKIFRACTIISRFMDDLVSRKFEQERNHVPSTVDCYMKQYGVSEQEACDELNKQVVNLWKEINQEFLRPTSMPSSILVRILNFTKVLDIIYKEGDGYTHVGKLVKDSVAALLIDPIPL
notes: E. coli BL21(DE3); monomer
- Km [4]: 38.43 ± 2.83 µM

B5: CsTPS1SK (Cannabis sativa) (protein)
chain: RSANYGPPIWSFDFVQSLPIQYKGESYTSRLNKLEKDVKRMLIGVENSLAQLELIDTIQRLGISYRFENEIISILKEKFTNNNNNPNPINYDLYATALQFRLLRQYGFEVPQEIFNNFKNHKTGEFKANISNDIMGALGLYEASFHGKKGESILEEARIFTTKCLKKYKLMSSSNNNNMTLISLLVNHALEMPLQWRITRSEAKWFIEEIYERKQDMNPTLLEFAKLDFNMLQSTYQEELKVLSRWWKDSKLGEKLPFVRDRLVECFLWQVGVRFEPQFSYFRIMDTKLYVLLTIIDDMHDIYGTLEELQLFTNALQRWDLKELDKLPDYMKTAFYFTYNFTNELAFDVLQEHGFVHIEYFKKLMVELCKHHLQEAKWFYSGYKPTLQEYVENGWLSVGGQVILMHAYFAFTNPVTKEALECLKDGHPNIVRHASIILRLADDLGTLSDELKRGDVPKSIQCYMHDTGASEDEAREHIKYLISESWKEMNNEDGNINSFFSNEFVQVKQNLGRASQMIYQYGDGHASQNNLSKERVLGLIITPIPM
notes: E. coli BL21(DE3); monomer
- Km [5]: 7.809 ± 0.678 µM
